Measured values as given in the supplement of paper PMC9112550, “Optimization of the antimicrobial peptide Bac7 by deep mutational scanning” (BMC Biology, 2022).

System: Escherichia coli TOP10
Test: shrunken log2 fold change of peptide-encoding DNA abundance (4.5 h post-induction vs induction); higher = less antimicrobial activity (less host growth inhibition)
Conditions: time post-induction: 4.5 h; library: site-saturation at positions 5, 18, 19, 20
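Note: peptides expressed intracellularly from a pBAD plasmid library in pooled LB shake-flask culture, induced with 0.3% L-arabinose, DNA abundance read by NGS, three biological replicates, DESeq2 with apeglm shrinkage.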

## RRIRKRPPRLPRPRPRPKQGPRP
  shrunken log2 fold change: 0.121

## RRIRCRPPRLPRPRPRPVGLPRP
  shrunken log2 fold change: 0.0659

## RRIRKRPPRLPRPRPRPNIDPRP
  shrunken log2 fold change: -0.0981

## RRIRHRPPRLPRPRPRPFREPRP
  shrunken log2 fold change: -0.0591

## RRIRVRPPRLPRPRPRPPSGPRP
  shrunken log2 fold change: 0.208

## RRIRDRPPRLPRPRPRPEYFPRP
  shrunken log2 fold change: 0.0472

## RRIRFRPPRLPRPRPRPFMHPRP
  shrunken log2 fold change: -0.147

## RRIRMRPPRLPRPRPRPDYQPRP
  shrunken log2 fold change: -0.304

## RRIRARPPRLPRPRPRPFEDPRP
  shrunken log2 fold change: 0.0795

## RRIRGRPPRLPRPRPRPLGHPRP
  shrunken log2 fold change: 0.595

## RRIRNRPPRLPRPRPRPSVHPRP
  shrunken log2 fold change: -0.311

## RRIRVRPPRLPRPRPRPSRRPRP
  shrunken log2 fold change: 0.157

## RRIRKRPPRLPRPRPRPCCGPRP
  shrunken log2 fold change: 0.281

## RRIRRRPPRLPRPRPRPHYVPRP
  shrunken log2 fold change: -0.13

## RRIRMRPPRLPRPRPRPPGDPRP
  shrunken log2 fold change: 1.51

## RRIRTRPPRLPRPRPRPQREPRP
  shrunken log2 fold change: -0.0725

## RRIRWRPPRLPRPRPRPNSWPRP
  shrunken log2 fold change: -0.0727

## RRIRNRPPRLPRPRPRPNQEPRP
  shrunken log2 fold change: -0.0316

## RRIRARPPRLPRPRPRPITGPRP
  shrunken log2 fold change: -0.00407

## RRIRWRPPRLPRPRPRPMSEPRP
  shrunken log2 fold change: 0.0832

## RRIRCRPPRLPRPRPRPDRNPRP
  shrunken log2 fold change: -0.397

## RRIRKRPPRLPRPRPRPLDSPRP
  shrunken log2 fold change: 0.233

## RRIRTRPPRLPRPRPRPREGPRP
  shrunken log2 fold change: 0.41

## RRIRRRPPRLPRPRPRPVRVPRP
  shrunken log2 fold change: 0.791

## RRIRFRPPRLPRPRPRPLHQPRP
  shrunken log2 fold change: -0.37

## RRIRWRPPRLPRPRPRPKYYPRP
  shrunken log2 fold change: -0.84

## RRIRARPPRLPRPRPRPYWKPRP
  shrunken log2 fold change: -0.0819

## RRIRERPPRLPRPRPRPFRPPRP
  shrunken log2 fold change: -0.179

## RRIRCRPPRLPRPRPRPEGGPRP
  shrunken log2 fold change: 0.477

## RRIRSRPPRLPRPRPRPNTEPRP
  shrunken log2 fold change: 0.121

## RRIRRRPPRLPRPRPRPEGSPRP
  shrunken log2 fold change: 0.223

## RRIRARPPRLPRPRPRPNHQPRP
  shrunken log2 fold change: 0.243

## RRIRCRPPRLPRPRPRPNVKPRP
  shrunken log2 fold change: -0.482

## RRIRARPPRLPRPRPRPLFAPRP
  shrunken log2 fold change: 0.647

## RRIRIRPPRLPRPRPRPSWSPRP
  shrunken log2 fold change: -0.458

## RRIRHRPPRLPRPRPRPQQLPRP
  shrunken log2 fold change: 0.044

## RRIRSRPPRLPRPRPRPFDVPRP
  shrunken log2 fold change: -0.151

## RRIRIRPPRLPRPRPRPYKCPRP
  shrunken log2 fold change: -0.199

## RRIRPRPPRLPRPRPRPHTIPRP
  shrunken log2 fold change: -0.39

## RRIRPRPPRLPRPRPRPMKLPRP
  shrunken log2 fold change: -0.0874

## RRIRGRPPRLPRPRPRPHDNPRP
  shrunken log2 fold change: 0.174

## RRIRDRPPRLPRPRPRPAWEPRP
  shrunken log2 fold change: 1.07

## RRIRIRPPRLPRPRPRPWASPRP
  shrunken log2 fold change: 0.00397

## RRIRERPPRLPRPRPRPPTWPRP
  shrunken log2 fold change: 0.113

## RRIRFRPPRLPRPRPRPMRDPRP
  shrunken log2 fold change: 0.109

## RRIRCRPPRLPRPRPRPCHMPRP
  shrunken log2 fold change: -0.443

## RRIRARPPRLPRPRPRPSTPPRP
  shrunken log2 fold change: 0.235

## RRIRNRPPRLPRPRPRPLEVPRP
  shrunken log2 fold change: -0.118

## RRIRIRPPRLPRPRPRPRPIPRP
  shrunken log2 fold change: 0.0745

## RRIRCRPPRLPRPRPRPEGTPRP
  shrunken log2 fold change: 0.137

## RRIRKRPPRLPRPRPRPGSVPRP
  shrunken log2 fold change: 0.162

## RRIRVRPPRLPRPRPRPFDRPRP
  shrunken log2 fold change: 0.121

## RRIRARPPRLPRPRPRPQLIPRP
  shrunken log2 fold change: 0.184

## RRIRLRPPRLPRPRPRPFHMPRP
  shrunken log2 fold change: -0.16

## RRIRWRPPRLPRPRPRPQVSPRP
  shrunken log2 fold change: -0.0705

## RRIRTRPPRLPRPRPRPVWIPRP
  shrunken log2 fold change: -0.651

## RRIRWRPPRLPRPRPRPGHIPRP
  shrunken log2 fold change: -0.0732

## RRIRVRPPRLPRPRPRPVDTPRP
  shrunken log2 fold change: -0.18

## RRIRSRPPRLPRPRPRPCHIPRP
  shrunken log2 fold change: -0.872

## RRIRGRPPRLPRPRPRPTMAPRP
  shrunken log2 fold change: 1.24

## RRIRKRPPRLPRPRPRPYPMPRP
  shrunken log2 fold change: -0.2

## RRIRLRPPRLPRPRPRPSTAPRP
  shrunken log2 fold change: -1.05

## RRIRWRPPRLPRPRPRPKNKPRP
  shrunken log2 fold change: 0.107

## RRIRARPPRLPRPRPRPNHGPRP
  shrunken log2 fold change: -0.0204

## RRIRCRPPRLPRPRPRPWYWPRP
  shrunken log2 fold change: -0.286

## RRIRYRPPRLPRPRPRPPIPPRP
  shrunken log2 fold change: 0.31

## RRIRSRPPRLPRPRPRPTVHPRP
  shrunken log2 fold change: -0.0989

## RRIRARPPRLPRPRPRPKWFPRP
  shrunken log2 fold change: 0.053

## RRIRWRPPRLPRPRPRPKFCPRP
  shrunken log2 fold change: -0.116

## RRIRGRPPRLPRPRPRPEEWPRP
  shrunken log2 fold change: 1.7

## RRIRQRPPRLPRPRPRPTWMPRP
  shrunken log2 fold change: -0.262

## RRIRCRPPRLPRPRPRPGAGPRP
  shrunken log2 fold change: 0.364

## RRIRSRPPRLPRPRPRPTHTPRP
  shrunken log2 fold change: 0.106

## RRIRQRPPRLPRPRPRPEVDPRP
  shrunken log2 fold change: 0.0316

## RRIRQRPPRLPRPRPRPKAWPRP
  shrunken log2 fold change: -0.0334

## RRIRTRPPRLPRPRPRPEIEPRP
  shrunken log2 fold change: -0.299

## RRIRDRPPRLPRPRPRPNYVPRP
  shrunken log2 fold change: -0.147

## RRIRGRPPRLPRPRPRPDFNPRP
  shrunken log2 fold change: 0.325

## RRIRERPPRLPRPRPRPLNSPRP
  shrunken log2 fold change: -0.432

## RRIRLRPPRLPRPRPRPQCNPRP
  shrunken log2 fold change: -0.0192

## RRIRTRPPRLPRPRPRPEYRPRP
  shrunken log2 fold change: 0.0555

## RRIRWRPPRLPRPRPRPLVDPRP
  shrunken log2 fold change: 0.0816

## RRIRDRPPRLPRPRPRPPVIPRP
  shrunken log2 fold change: 0.0554

## RRIRFRPPRLPRPRPRPSSFPRP
  shrunken log2 fold change: -0.227

## RRIRARPPRLPRPRPRPMGEPRP
  shrunken log2 fold change: 0.1

## RRIRSRPPRLPRPRPRPRWGPRP
  shrunken log2 fold change: 0.228

## RRIRIRPPRLPRPRPRPSPIPRP
  shrunken log2 fold change: -0.574

## RRIRYRPPRLPRPRPRPMMDPRP
  shrunken log2 fold change: -0.103

## RRIRQRPPRLPRPRPRPRLNPRP
  shrunken log2 fold change: -0.111

## RRIRMRPPRLPRPRPRPYGWPRP
  shrunken log2 fold change: 0.0956

## RRIRGRPPRLPRPRPRPGMGPRP
  shrunken log2 fold change: 0.963

## RRIRYRPPRLPRPRPRPNDRPRP
  shrunken log2 fold change: -0.0645

## RRIRVRPPRLPRPRPRPHKFPRP
  shrunken log2 fold change: 0.0807

## RRIRWRPPRLPRPRPRPAAKPRP
  shrunken log2 fold change: 0.482

## RRIRCRPPRLPRPRPRPQYGPRP
  shrunken log2 fold change: -0.142

## RRIRYRPPRLPRPRPRPKWSPRP
  shrunken log2 fold change: -0.0252

## RRIRWRPPRLPRPRPRPDSSPRP
  shrunken log2 fold change: -0.238

## RRIRCRPPRLPRPRPRPETPPRP
  shrunken log2 fold change: 1.91

## RRIRFRPPRLPRPRPRPTIVPRP
  shrunken log2 fold change: 0.0438

## RRIRMRPPRLPRPRPRPISEPRP
  shrunken log2 fold change: 0.151

## RRIRMRPPRLPRPRPRPFYPPRP
  shrunken log2 fold change: -0.401

## RRIRNRPPRLPRPRPRPGMIPRP
  shrunken log2 fold change: 0.00966

## RRIRRRPPRLPRPRPRPTFDPRP
  shrunken log2 fold change: 0.425

## RRIRWRPPRLPRPRPRPCPMPRP
  shrunken log2 fold change: -0.0512

## RRIRMRPPRLPRPRPRPKIVPRP
  shrunken log2 fold change: 0.0132

## RRIRPRPPRLPRPRPRPDLNPRP
  shrunken log2 fold change: 0.168

## RRIRKRPPRLPRPRPRPGTSPRP
  shrunken log2 fold change: 0.0376

## RRIRNRPPRLPRPRPRPCWCPRP
  shrunken log2 fold change: -0.147

## RRIRLRPPRLPRPRPRPQENPRP
  shrunken log2 fold change: -0.261

## RRIRGRPPRLPRPRPRPCQLPRP
  shrunken log2 fold change: -0.327

## RRIRWRPPRLPRPRPRPKYAPRP
  shrunken log2 fold change: -0.0417

## RRIRGRPPRLPRPRPRPFHAPRP
  shrunken log2 fold change: -0.13

## RRIRKRPPRLPRPRPRPLWQPRP
  shrunken log2 fold change: 0.442

## RRIRERPPRLPRPRPRPDKTPRP
  shrunken log2 fold change: -0.0128

## RRIRVRPPRLPRPRPRPGQCPRP
  shrunken log2 fold change: -0.0287

## RRIRRRPPRLPRPRPRPLHFPRP
  shrunken log2 fold change: 0.397

## RRIRARPPRLPRPRPRPMGAPRP
  shrunken log2 fold change: 0.572

## RRIRCRPPRLPRPRPRPEMPPRP
  shrunken log2 fold change: 0.65

## RRIRTRPPRLPRPRPRPERGPRP
  shrunken log2 fold change: 0.715

## RRIRARPPRLPRPRPRPWHSPRP
  shrunken log2 fold change: 0.0528

## RRIRLRPPRLPRPRPRPNSTPRP
  shrunken log2 fold change: -0.294

## RRIRFRPPRLPRPRPRPKYRPRP
  shrunken log2 fold change: 0.225

## RRIRKRPPRLPRPRPRPPISPRP
  shrunken log2 fold change: 0.22

## RRIRDRPPRLPRPRPRPKGVPRP
  shrunken log2 fold change: -0.00195

## RRIRSRPPRLPRPRPRPESIPRP
  shrunken log2 fold change: -0.397

## RRIRPRPPRLPRPRPRPDVQPRP
  shrunken log2 fold change: 0.234

## RRIRDRPPRLPRPRPRPRHPPRP
  shrunken log2 fold change: 0.0563

## RRIRFRPPRLPRPRPRPYNGPRP
  shrunken log2 fold change: -1.47

## RRIRARPPRLPRPRPRPTDMPRP
  shrunken log2 fold change: -0.0247

## RRIRWRPPRLPRPRPRPEICPRP
  shrunken log2 fold change: 0.127

## RRIRRRPPRLPRPRPRPESCPRP
  shrunken log2 fold change: 0.763

## RRIRCRPPRLPRPRPRPDMWPRP
  shrunken log2 fold change: 0.104

## RRIRMRPPRLPRPRPRPVNQPRP
  shrunken log2 fold change: -0.0449

## RRIRARPPRLPRPRPRPSHAPRP
  shrunken log2 fold change: 0.333

## RRIRIRPPRLPRPRPRPYIFPRP
  shrunken log2 fold change: -0.425

## RRIRMRPPRLPRPRPRPAAHPRP
  shrunken log2 fold change: 0.531

## RRIRIRPPRLPRPRPRPDSGPRP
  shrunken log2 fold change: 0.00524

## RRIRFRPPRLPRPRPRPSAHPRP
  shrunken log2 fold change: -0.352

## RRIRLRPPRLPRPRPRPDFNPRP
  shrunken log2 fold change: -0.444

## RRIRIRPPRLPRPRPRPPPNPRP
  shrunken log2 fold change: 0.776

## RRIRDRPPRLPRPRPRPWETPRP
  shrunken log2 fold change: 0.192

## RRIRERPPRLPRPRPRPWFRPRP
  shrunken log2 fold change: -0.214

## RRIRNRPPRLPRPRPRPAWWPRP
  shrunken log2 fold change: 0.293

## RRIRARPPRLPRPRPRPWKIPRP
  shrunken log2 fold change: -0.117

## RRIRHRPPRLPRPRPRPNCIPRP
  shrunken log2 fold change: -0.753

## RRIRCRPPRLPRPRPRPRKDPRP
  shrunken log2 fold change: -0.0271

## RRIRKRPPRLPRPRPRPMHLPRP
  shrunken log2 fold change: -0.0647

## RRIRRRPPRLPRPRPRPYQNPRP
  shrunken log2 fold change: -0.74

## RRIRIRPPRLPRPRPRPDWQPRP
  shrunken log2 fold change: -0.00422

## RRIRGRPPRLPRPRPRPDSRPRP
  shrunken log2 fold change: 0.122
